Drawing on PMC8024894, this text covers Kd for two molecules.

Experiment [1] addresses endogenous neurexin on the surface of immature hippocampal neurons (mouse (endogenous in primary hippocampal neurons)) (UniProt Q9CS84). The experiment is described as follows: immunostaining of cells or tissue; cell surface binding assay, apparent Kd: Fc protein at 0-100 nM in HEPES bath solution, 1 h at room temperature, on DIV10 hippocampal neurons transduced with CA10-FLAG lentivirus; Fc signal normalised to neurexin staining.

For experiment [2] the target is unchanged. The experiment can be described thus: immunostaining of cells or tissue; cell surface binding assay, apparent Kd: Fc protein at 0-100 nM in HEPES bath solution, 1 h at room temperature, on DIV10 hippocampal neurons transduced with control (empty vector) lentivirus; Fc signal normalised to neurexin staining.

Chain of UniProt Q9CS84 (Q9CS84 31-1514): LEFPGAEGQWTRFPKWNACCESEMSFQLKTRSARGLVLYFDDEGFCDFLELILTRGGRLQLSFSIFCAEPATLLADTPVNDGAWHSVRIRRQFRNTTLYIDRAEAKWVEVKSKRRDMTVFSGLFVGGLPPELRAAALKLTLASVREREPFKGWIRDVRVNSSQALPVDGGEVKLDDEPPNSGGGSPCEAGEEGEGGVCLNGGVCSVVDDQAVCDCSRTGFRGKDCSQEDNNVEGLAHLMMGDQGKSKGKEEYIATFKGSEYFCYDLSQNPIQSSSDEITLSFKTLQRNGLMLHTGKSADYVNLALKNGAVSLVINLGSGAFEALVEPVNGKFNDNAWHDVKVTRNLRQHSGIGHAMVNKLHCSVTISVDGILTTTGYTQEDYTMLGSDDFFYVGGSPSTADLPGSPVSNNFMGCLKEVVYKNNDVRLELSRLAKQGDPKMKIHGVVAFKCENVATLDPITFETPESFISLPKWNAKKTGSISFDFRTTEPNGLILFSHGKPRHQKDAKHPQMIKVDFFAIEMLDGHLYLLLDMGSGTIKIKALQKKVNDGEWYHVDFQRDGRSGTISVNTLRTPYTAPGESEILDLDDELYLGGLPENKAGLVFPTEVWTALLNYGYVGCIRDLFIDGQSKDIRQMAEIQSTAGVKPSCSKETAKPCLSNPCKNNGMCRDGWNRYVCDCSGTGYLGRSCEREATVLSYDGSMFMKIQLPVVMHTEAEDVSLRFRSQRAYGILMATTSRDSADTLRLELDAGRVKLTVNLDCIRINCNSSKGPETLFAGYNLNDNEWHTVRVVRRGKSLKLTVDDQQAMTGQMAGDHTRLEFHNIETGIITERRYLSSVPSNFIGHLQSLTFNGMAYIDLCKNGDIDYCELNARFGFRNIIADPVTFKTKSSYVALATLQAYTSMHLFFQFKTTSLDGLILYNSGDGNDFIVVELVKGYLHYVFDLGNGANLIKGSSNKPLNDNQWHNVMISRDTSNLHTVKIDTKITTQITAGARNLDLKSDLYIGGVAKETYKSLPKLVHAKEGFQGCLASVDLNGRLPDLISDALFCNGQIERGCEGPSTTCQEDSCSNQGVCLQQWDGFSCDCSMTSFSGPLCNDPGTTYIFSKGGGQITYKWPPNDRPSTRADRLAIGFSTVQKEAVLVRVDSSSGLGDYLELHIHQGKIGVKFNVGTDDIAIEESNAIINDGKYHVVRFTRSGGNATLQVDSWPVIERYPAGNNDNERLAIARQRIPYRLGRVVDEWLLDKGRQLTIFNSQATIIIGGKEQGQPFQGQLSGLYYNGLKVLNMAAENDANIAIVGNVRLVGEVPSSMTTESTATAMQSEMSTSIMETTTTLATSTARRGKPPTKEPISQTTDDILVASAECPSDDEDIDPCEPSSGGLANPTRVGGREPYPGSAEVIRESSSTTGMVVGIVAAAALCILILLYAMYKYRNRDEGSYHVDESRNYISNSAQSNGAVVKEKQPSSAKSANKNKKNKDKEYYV

For Fc‐tagged Nlgn1 (Fc fusion), the values for the Kd in experiment [1] and in experiment [2] were 223 nM and 186 nM, respectively.

B1: Fc‐tagged LRRTM2 (Fc fusion)
chain: CPPKCRCEKLLFYCDSQGFHSVPNATDKGSLGLSLRHNHITELERDQFASFSQLTWLHLDHNQISTVKEDAFQGLYKLKELILSSNKIFYLPNTTFTQLINLQNLDLSFNQLSSLHPELFYGLRKLQTLHLRSNSLRTIPVRLFWDCRSLEFLDLSTNRLRSLARNGFAGLIKLRELHLEHNQLTKINFAHFLRLSSLHTLFLQWNKISNLTCGMEWTWGTLEKLDLTGNEIKAIDLTVFETMPNLKILLMDNNKLNSLDSKILNSLRSLTTVGLSGNLWECSARICALASWLGSFQGRWEHSILCHSPDHTQGEDILDAVHGFQLCWNLSTTVTVMATTYRDPTTEYTKRISSSSYHVGDKEIPTTAGIAVTTEEHFPEPDNAIFTQR
B1: the Kd came to 35.3 nM in experiment [1] and 29.5 nM in experiment [2].
